Experimental findings from the domain aggregation screens of Martell et al. (2025) are described below.

This data set is described as follows: soluble fraction after stress (log2 fold change); higher = more stays soluble; pooled small domains, quantitative proteomics. To be noted: stress: pH 4. Summed up:
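Aggregation propensity is read out as the fold change in how much of each domain remains soluble after acid stress. The custom small-domain libraries were pooled, held at pH 4 and analysed with high-throughput quantitative proteomics. On the log2 scale used, higher values mean more of the domain stayed soluble.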
For “HMETYPINVETTGTNVLLRTGPSTSSNIIKTITDKGTVFLSIERGINSDWQKVVTPDGTIGYMSGKY”, the “soluble fraction (log2)” value is -0.314. Then “HMEVAVQFIEFKIPENHAWIGKEIREITFPPESILVLIIRDGKKLVPNGKTVLKEGDSLILSGKASD”, with -1.61; and “HMEVDDEAIYQGHEPSIRLHRLLKDVGYNSALLPSVVTQIFKDFPGIELAKALPIAMQLLNED”, with -1.47; and “HMEVFGDTKEEQMIIDILKLGITDLEHLQAKSMLEPAIFSQTLTMLEISGKIRPLGAGHWTL”, with -1.49. Then “HMEVFTPSEANVAEAREILAAMATAKANGEGATVYKGRLVDIASIKQAEVIVRQSEMIQSAH”, with -0.151.

Consider “HMEVIDQLFKIALTLFDIDKGENNSISQDLVDKVIEQMKTTAPTFIKRELSEDEVKKLRFEIQNHFNV”, for which the “soluble fraction (log2)” value is -0.411.

For “HMEVKSGFVHLTGAVKSPGVYPISIGMRLFEVIALAGGFTAKADRESVNLARTVTDGEQIIVSGSG”, the “soluble fraction (log2)” value was -0.778. Regarding “HMEVLEGFIEDIKFKSEESGYTVAKLNNRNKSIVIVGTMPFISEGQHVKLTGEWKIHQKFGAQFNVKELEE”, the “soluble fraction (log2)” value was -1.37. Then “HMEVMYFIYQQEEPMRIDKFLVNEMEDFSRNSIQIYIKDNHVLVNDKVVKANYILKKGDAISITIPDPI”, with -0.768.

As to “HMEVNMEEKMEFVHSYIKTHKTFLFRQLLSESKSRTQVIVTFLVILELIKGGKISVTQENRTDDILINSL”, the “soluble fraction (log2)” value is -0.521. In the case of “HMEVPDTIIRLRELVAAMPEQWQKVYRLVFMEGLSKAKAGKKIGISDVRVGQLVKKINAAIAGDETLK” it was 0.0594; in that of “HMEVPMELPRQLRANRERLGLSQEDVAHAIYVSRQTMSSWERGKTYPDVQSLMLLSHLFGISIDELVKGDV”, -0.338; in that of “HMEVPVQYIKFKIPENHFWAKKKVADIILPPETLLVLLQRGSDKMIPDGETVLLPEDTLVLIAKAPG”, -0.783. In the case of “HMEVSVPDFTGMSKSDAQNAAKEAGLTVNFEEDYDNQVPAGQVIRSNPSAGEKVKKNSSVTVTLSKGSN” it was 0.24; in that of “HMEVSYSLPRFHKGKNPYVDFYQVDPRTLRMRRKKFLLRGVRDAVLLEQRAADLVALLTERLHSGWNAWDD”, -0.463.

With “HMEVTENQEKHAYQEAMDQALRFLAPRFLSRAELTRKLLQKEHDRDVIDAVIDRLEELDYVDDAR”, the “soluble fraction (log2)” value was -0.69.

For the sequence “HMEVTLGLGSMVRLLGEPYLGSTGRVVELPDQAERFASGLTAKVAVVERHDGELIRVPVTNLLLME”, the “soluble fraction (log2)” value stood at 0.214.

Take “HMEVTLTLKSFGTAKVAVIKAIQSITGLGLMDAKKLVDAAPSVIKEKISPSEAEQYKKTLVDAGAEVEI”: the “soluble fraction (log2)” value was 0.0249. In the case of “HMEVVVPDFEKIYIRDLDKFVEGHNVRYEIVDSIYNLEKDKGTVVDQDPEPGSKVKHGRVIYLTVNAML” it was -0.678; in that of “HMEVVVPEDLDAALQQASRAQSFFSSLSYTHKKEYVAWINEAKRAETRAMRIQKTITMLESGQRGH”, 0.28.

In the case of “HMEWEVHSVTVTPELSGERLDVAATALLSQFSRALVQRWIDANELTLNERPVKAKSKVRVGDLIAVKAK”, the “soluble fraction (log2)” value was 0.0878. Turning to “HMEWLENIKKLKKEKGLTNESLSEKSGISVGTLNKLLSGATTDPKLSTLRPLADALEVSLDELLAI”, the “soluble fraction (log2)” value is -0.187. In the case of “HMEWTDIPTHKVPNVVGKSVEEAKKKLSKFTIEYSGTGEKVVAQSPDAGEKLEEGGTVRLLL” it was 0.00183; in that of “HMEYEETMSQIKHNLNLLPRQQRVIIEMAKFDELTPAEIAKQLGISVQTVRNQLSTGLKKLRQLL”, -0.373; in that of “HMEYKKKIGELLIDGNKKLKAANIDTYILDTQLLLGKVLGKDKLYLITNKDEEVSNFKEREFYSLIEKRI”, -0.304. Then “HMEYMKQRLYDIIELFKRSFSPSFSEEEKKKLENVLQDDFLRKAYEQLSDEVFIEEKFREFDGY”, with -2.28; and “HMEYPNEIARIFNQIPELNVSAVARTLGINKSLLSSYIYGMKKPSPERTEEIKSAIRKIGQNMLAV”, with 0.000369. In the case of “HMEYQSLVLDFLEQGDFNAEKLKDYQRAFAKQNGMQTLPSKSQILQAYFQLVEEKKINKNSDFELLLRKR” it was -0.362. As for “HMEYSNLGEALRRLSEIDLQIILLKYSHGFSIKEISKILDIKEVNLYKRNKRALNKLKKILAEMEVLSN”, the “soluble fraction (log2)” value was -0.272. For the sequence “HMEYYDDEELDRFRGVEADAYDEDAVNEFRDVLYTLQEIEVAGWLRSLQLRAINLPDELKDEAFLI”, the “soluble fraction (log2)” value is -2.01. Then “HMEYYEDEELDRFRGRNSDQYSDAEIEEFNEILTTLRSEEVAGWIRSLQLREIALPDELKDDVILLVG”, with -1.51; and “HMEYYIMPVANLHKVVVDGKDMSNLISNNAIAVKANVIDEGQIQIKPGEIIITTPAGVSPEEAVRSP”, with -0.135; and “HMFANQLLLTRFDLNYIKSDVLSRQIDVLGIPIKKLTIEANNKSIWLQGTSQSLSKVRELIGIIDIRENA”, with -1.73. Then “HMFAQDKKFITYKVKEGETVQSISKALSITPYDLLKLNPDIKDNVSQDDLLIIPNKQYDPLGDI”, with 0.421. As for “HMFDENVKLIENEYDVSIISRGSELKVMGDVENVDKAARALRSMLAMINKGESLTEQNVRYVLTLVNEGNE”, the “soluble fraction (log2)” value was -1.38.
